Experiments:
Conditions in all cases: both partners purified
[1] = molecular target: T1, human complement component C3 (Homo sapiens, UniProt P01024); assay: SPR; Biacore single-cycle kinetics counter screen; C3 amine-coupled to CM5 (minimal immobilisation, 40-55 RU); PGT121 knob fusion proteins as analytes
T1 construct: Complement component C3, human, beta chain of the processed serum protein; Complement component C3, human, alpha chain of the processed serum protein; source: bought: CompTech

Complement component C5 [2] = molecular target: T2, Complement component C5 (Homo sapiens, UniProt P01031); assay: FRET or BRET; steady state FRET; 1 nM terbium-labelled C5; titration of AlexaFluor 647-labelled PGT121 knob fusion protein in HBS-EP, with and without 1 μM unlabelled C5; 24 hours; apparent KD (KD app), geomean of 3 experiments
T2 construct: Complement component C5, human, beta chain of the processed serum protein; Complement component C5, human, alpha chain of the processed serum protein; In the FRET assays C5 carried an amine-reactive terbium chelate (dye to protein 4:1); in SPR it was amine-coupled to a CM5 chip; The C5 used for immunisation was bought from CompTech; also called human C5; C5-Tb

Complement component C5 [3] = molecular target: T2, Complement component C5; assay: SPR; Biacore 8K single-cycle kinetics; C5 amine-coupled to CM5 (minimal immobilisation, 100-160 RU; 50-85 RU for PGT121-K149); PGT121 knob fusion proteins as analytes, 1 μM to 1.37 nM in HBS-EP; 40 μL/min (100 μL/min for K149); dissociation 10,000 s; 1:1 model; mean of 3 experiments

T2 sequence (P01031 whole entry, looked up, the tested form may be a part): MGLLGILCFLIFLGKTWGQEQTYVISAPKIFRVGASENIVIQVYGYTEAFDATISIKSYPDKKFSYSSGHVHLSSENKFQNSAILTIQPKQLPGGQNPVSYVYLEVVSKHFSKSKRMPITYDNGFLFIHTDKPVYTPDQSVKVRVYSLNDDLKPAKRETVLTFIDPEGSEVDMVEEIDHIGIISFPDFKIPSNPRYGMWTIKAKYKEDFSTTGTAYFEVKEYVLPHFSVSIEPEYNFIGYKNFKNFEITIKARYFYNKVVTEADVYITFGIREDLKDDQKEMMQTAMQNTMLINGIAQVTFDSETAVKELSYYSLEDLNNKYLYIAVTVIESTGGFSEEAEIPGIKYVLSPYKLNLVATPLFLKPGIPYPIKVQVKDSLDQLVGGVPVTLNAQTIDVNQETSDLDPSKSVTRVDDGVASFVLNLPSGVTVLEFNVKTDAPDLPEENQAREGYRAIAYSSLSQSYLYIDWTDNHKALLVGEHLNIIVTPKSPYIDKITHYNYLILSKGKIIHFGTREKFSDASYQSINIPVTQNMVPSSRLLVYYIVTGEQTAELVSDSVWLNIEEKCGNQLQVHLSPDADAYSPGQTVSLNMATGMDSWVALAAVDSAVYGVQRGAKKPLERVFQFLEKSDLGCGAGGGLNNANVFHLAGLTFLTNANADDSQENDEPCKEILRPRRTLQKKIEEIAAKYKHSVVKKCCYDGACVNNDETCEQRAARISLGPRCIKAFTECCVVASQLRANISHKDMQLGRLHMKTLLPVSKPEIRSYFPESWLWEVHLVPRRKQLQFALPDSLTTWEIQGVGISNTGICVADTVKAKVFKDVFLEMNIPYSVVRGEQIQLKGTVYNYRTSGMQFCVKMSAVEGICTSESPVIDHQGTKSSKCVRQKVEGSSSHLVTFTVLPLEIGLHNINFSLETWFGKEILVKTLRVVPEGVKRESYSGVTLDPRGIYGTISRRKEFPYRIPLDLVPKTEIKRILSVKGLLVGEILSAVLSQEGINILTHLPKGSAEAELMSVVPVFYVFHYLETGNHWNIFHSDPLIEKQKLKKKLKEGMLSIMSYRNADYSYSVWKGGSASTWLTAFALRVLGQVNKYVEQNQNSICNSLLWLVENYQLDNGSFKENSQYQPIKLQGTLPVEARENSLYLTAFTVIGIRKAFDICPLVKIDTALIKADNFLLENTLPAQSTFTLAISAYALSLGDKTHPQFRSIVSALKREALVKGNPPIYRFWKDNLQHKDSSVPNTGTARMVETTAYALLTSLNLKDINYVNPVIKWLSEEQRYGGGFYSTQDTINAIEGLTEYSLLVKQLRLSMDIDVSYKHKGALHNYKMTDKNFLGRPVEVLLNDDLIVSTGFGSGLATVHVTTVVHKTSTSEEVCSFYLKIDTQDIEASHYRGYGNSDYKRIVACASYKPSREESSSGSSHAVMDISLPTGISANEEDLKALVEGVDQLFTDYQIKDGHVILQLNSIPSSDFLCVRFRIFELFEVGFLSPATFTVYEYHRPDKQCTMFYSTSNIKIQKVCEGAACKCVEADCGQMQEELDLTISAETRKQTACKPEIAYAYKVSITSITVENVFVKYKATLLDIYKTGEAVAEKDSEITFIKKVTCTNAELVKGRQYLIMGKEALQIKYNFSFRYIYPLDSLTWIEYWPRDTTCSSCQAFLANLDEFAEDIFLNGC
T1 sequence (P01024 whole entry, looked up, the tested form may be a part): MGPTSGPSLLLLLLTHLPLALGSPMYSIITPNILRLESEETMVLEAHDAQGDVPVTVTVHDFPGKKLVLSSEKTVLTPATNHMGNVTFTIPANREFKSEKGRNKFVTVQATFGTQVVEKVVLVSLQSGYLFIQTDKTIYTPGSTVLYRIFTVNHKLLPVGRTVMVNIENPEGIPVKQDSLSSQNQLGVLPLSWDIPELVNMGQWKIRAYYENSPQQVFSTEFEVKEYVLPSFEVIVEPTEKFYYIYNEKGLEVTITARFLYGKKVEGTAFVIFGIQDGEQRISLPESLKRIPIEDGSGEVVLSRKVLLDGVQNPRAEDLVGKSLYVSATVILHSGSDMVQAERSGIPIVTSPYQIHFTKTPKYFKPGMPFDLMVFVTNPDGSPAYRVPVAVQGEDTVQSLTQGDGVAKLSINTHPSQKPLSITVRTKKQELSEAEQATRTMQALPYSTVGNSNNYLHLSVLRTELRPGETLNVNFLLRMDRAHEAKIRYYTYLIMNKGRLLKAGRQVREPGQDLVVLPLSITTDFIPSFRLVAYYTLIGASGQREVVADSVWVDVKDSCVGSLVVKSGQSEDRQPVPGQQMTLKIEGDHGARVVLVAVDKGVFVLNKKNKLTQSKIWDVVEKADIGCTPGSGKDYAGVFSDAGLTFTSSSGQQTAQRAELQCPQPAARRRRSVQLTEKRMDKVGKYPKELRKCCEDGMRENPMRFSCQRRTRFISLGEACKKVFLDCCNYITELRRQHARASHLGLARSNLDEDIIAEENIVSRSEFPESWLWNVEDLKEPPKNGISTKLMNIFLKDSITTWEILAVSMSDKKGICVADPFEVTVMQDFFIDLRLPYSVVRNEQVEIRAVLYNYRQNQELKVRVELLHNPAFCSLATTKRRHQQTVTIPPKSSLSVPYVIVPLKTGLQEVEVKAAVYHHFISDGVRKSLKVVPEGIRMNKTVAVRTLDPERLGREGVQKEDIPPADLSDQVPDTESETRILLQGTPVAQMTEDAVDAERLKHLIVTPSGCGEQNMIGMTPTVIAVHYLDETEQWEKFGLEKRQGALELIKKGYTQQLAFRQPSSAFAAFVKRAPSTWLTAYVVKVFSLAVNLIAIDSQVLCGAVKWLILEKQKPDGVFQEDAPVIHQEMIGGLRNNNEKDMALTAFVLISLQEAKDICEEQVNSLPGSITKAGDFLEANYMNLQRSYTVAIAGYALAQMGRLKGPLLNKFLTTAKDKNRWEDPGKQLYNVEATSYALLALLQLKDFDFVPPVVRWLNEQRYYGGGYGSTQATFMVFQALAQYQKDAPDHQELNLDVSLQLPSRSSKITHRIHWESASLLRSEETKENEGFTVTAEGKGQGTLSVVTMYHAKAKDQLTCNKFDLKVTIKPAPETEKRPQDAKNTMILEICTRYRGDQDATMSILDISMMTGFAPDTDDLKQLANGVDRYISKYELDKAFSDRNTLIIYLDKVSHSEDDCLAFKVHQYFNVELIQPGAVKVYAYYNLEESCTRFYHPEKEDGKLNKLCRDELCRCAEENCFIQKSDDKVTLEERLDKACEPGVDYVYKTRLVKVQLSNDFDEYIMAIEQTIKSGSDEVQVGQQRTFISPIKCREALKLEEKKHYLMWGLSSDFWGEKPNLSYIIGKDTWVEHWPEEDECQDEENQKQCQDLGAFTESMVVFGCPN

Binder | binding result [1] | Kd (Complement component C5 [2]) | koff (Complement component C5 [3])
PGT121-K136 fusion protein (Fab, light chain of the human Fab PGT121, as the light chain of m4; Purified on a nickel column, so a His tag is surmised; also called PGT121 Fab-knob domain fusion protein (K136); source: Expi293F, transient co-transfection of heavy and light chain, purified from supernatant (Hi-Trap Nickel excel)) VH: QMQLQESGPGLVKPSETLSLTCSVSGASISDSYWSWIRRSPGKGLEWIGYVHKSGDTNYSPSLKSRVNLSLDTSKNQVSLSLVAATAADSGKYYCARTLHGRRIYGSENLYFQGTCPDNYREVDGCDPYDCCLTTWCTNSYCTRYIENLYFQGSEWFTYFYMDVWGNGTQVTVSS VL: QSVLTQPPDISVAPGETARISCGEKSLGSRAVQWYQHRAGQAPSLIIYNNQDRPSGIPERFSGSPDSPFGTTATLTITSVEAGDEADYYCHIWDSRVPTKWVFGGGTTLTVL | no binding (tested: 1 μM) | 40 nM | < 1e-05 s⁻¹
PGT121-K149 fusion protein (Fab, light chain of the human Fab PGT121, as the light chain of m4; Purified on a nickel column, so a His tag is surmised; also called K149-PGT121 construct; source: Expi293F, transient co-transfection of heavy and light chain, purified from supernatant (Hi-Trap Nickel excel)) VH: QMQLQESGPGLVKPSETLSLTCSVSGASISDSYWSWIRRSPGKGLEWIGYVHKSGDTNYSPSLKSRVNLSLDTSKNQVSLSLVAATAADSGKYYCARTLHGRRIYGSENLYFQGSCPDGFSYRSWDDFCCPMVGRCLAPRNGSENLYFQGSEWFTYFYMDVWGNGTQVTVSS VL: QSVLTQPPDISVAPGETARISCGEKSLGSRAVQWYQHRAGQAPSLIIYNNQDRPSGIPERFSGSPDSPFGTTATLTITSVEAGDEADYYCHIWDSRVPTKWVFGGGTTLTVL | no binding (tested: 1 μM) | 66 nM | –

Reference: publication PMC7498065 (PLoS Biology, 2020)
